The source of these data is paper PMC2643056 (Molecular cell, 2008).

This assay concerns the target T1, His6-Dsk2 (S. cerevisiae, UniProt P48510 1-373).
T1 sequence (looked up): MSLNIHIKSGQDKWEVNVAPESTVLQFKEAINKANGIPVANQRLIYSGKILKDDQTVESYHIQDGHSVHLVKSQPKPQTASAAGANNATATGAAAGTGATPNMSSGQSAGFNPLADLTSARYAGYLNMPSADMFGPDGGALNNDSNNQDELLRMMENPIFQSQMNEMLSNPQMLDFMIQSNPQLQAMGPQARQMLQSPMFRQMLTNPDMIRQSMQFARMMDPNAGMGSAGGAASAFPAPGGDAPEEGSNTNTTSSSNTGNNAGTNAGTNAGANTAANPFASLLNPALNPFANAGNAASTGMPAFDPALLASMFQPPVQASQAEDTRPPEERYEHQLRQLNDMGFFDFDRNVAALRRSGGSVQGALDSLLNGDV
Nature of the assay: far-Western, overlay or dot blot.

B1: recombinant Rpn10, full length (natural protein, S. cerevisiae, UniProt P38886 1-268, looked up)
chain: MVLEATVLVIDNSEYSRNGDFPRTRFEAQIDSVEFIFQAKRNSNPENTVGLISGAGANPRVLSTFTAEFGKILAGLHDTQIEGKLHMATALQIAQLTLKHRQNKVQHQRIVAFVCSPISDSRDELIRLAKTLKKNNVAVDIINFGEIEQNTELLDEFIAAVNNPQEETSHLLTVTPGPRLLYENIASSPIILEEGSSGMGAFGGSGGDSDANGTFMDFGVDPSMDPELAMALRLSMEEEQQRQERLRQQQQQQDQPEQSEQPEQHQDK
On to B1, for which the binding result is listed as “binds”.
